These results are taken from patent US6514747B2 (UT-Battelle, LLC, priority 1993, dated 2003).

Read-outs that look alike come from different tables or passages of the source.

Holding throughout (type): cell-based
For one data set, the target named is T1, human MC4-R (Homo sapiens, UniProt P32245).
T1 construct: expressed in transfected cells; host or cells: 293 cells
In words: α-MSH activation of human MC4-R in transfected 293 cells (adenylyl cyclase).

A further data set addresses T2, rat MC3-R (Rattus norvegicus, UniProt P32244).
T2 construct: expressed in transfected cells; host or cells: 293 cells
Put plainly: α-MSH activation of rat MC3-R in transfected 293 cells (adenylyl cyclase). The conditions noted are these: agouti 0.7 nM.

The target in another data set is T3, human TSH-receptor (Homo sapiens, UniProt P16473).
T3 construct: expressed in transfected cells; host or cells: 293 (human embryonic kidney) cells
T3 sequence (P16473 21-764): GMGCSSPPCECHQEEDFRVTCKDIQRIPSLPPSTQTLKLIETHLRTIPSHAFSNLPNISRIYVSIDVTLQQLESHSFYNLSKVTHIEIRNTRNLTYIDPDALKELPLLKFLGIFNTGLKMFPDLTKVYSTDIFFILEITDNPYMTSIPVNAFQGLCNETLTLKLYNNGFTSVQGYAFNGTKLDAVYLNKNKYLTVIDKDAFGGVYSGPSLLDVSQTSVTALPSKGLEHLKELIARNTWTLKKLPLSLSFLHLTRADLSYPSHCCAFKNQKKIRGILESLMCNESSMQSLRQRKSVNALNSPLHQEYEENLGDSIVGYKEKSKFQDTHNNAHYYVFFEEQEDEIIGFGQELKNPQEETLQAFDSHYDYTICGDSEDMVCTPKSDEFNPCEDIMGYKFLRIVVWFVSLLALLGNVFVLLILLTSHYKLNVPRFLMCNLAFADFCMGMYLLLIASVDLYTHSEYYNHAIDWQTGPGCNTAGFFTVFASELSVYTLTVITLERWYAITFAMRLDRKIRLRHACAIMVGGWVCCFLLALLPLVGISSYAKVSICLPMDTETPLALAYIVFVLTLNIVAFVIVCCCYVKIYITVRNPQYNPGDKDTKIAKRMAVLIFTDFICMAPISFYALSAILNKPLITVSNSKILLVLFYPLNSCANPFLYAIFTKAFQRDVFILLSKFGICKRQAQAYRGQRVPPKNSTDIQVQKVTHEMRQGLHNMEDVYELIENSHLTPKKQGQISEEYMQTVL
Put plainly: TSH-stimulated adenylyl cyclase in TSH-R-transfected 293 cells. The conditions noted are these: agouti 0.7 nM. As to the method: 293 cells (5×10^5) and 293 cells expressing human TSH-R were preloaded with 5 μCi ^3H-adenine for 1.5 h at 37° C. in a 5% CO2 incubator.
Medium was aspirated and 2.5% perchloric acid containing 0.1 mM cAMP was used to stop the incubation. Adenylyl cyclase activity was calculated by determining the percent conversion of ^3H-adenine to ^3H-cAMP as described (Salomon, 1991; Johnson and Salomon, 1991). Correlation of cAMP accumulation measured in this assay with actual adenylyl cyclase activity is made under the assumption that isobutymethylxanthine effectively blocks cAMP degradation. Data represent means and standard deviations from triplicate data points.

For data set [1], the system named is 3T3-L1 adipocytes. Put plainly: lipogenesis in 3T3-L1 adipocytes (FAS and SCD mRNA, FAS activity, triglyceride content).
A further data set concerns the target T4, mouse MC5-R (Mus musculus, UniProt P41149).
T4 construct: expressed in transfected cells; host or cells: 293 cells
In words: α-MSH activation of mouse MC5-R in transfected 293 cells (adenylyl cyclase).

Another data set concerns the target T5, murine MSH-R (Mus musculus, UniProt Q01727).
T5 construct: expressed in transfected cells; host or cells: 293 cells, stably transfected
Put plainly: α-MSH activation of murine MSH-R in stably transfected 293 cells (adenylyl cyclase). The conditions noted are these: agouti 0.7 nM.

The subject of another data set is L6 skeletal myocytes. In words: [Ca2+]i in L6 skeletal myocytes (fura 2). The following applies: for [Ca2+]i Increase over Baseline: 400 s, n = 8.
Data set [2] concerns 3T3-L1 adipocytes. In words: [Ca2+]i in 3T3-L1 adipocytes (fura 2). The conditions noted are these: for [Ca2+]i Increase over Baseline: 400 s, n = 8. As for the experimental part: The spontaneously fusing L6 skeletal muscle cells [American Type Culture Collection (ATCC), Bethesda, MD] were grown in 75-cm^2 flasks in Dulbecco's modified Eagle's medium with 10% glucose (DMEM) supplemented with 5% fetal bovine serum (FBS, vol/vol), 5% calf serum supplemented iron enriched (CS, vol/vol, and antibiotics (50 U penicillin/ml and 5 μg of streptomycin/ml). Cultures were maintained in continuous passages (<20) by trypsinization (0.05% trypsin) of semiconfluent nonfused cells. A7r5 vascular smooth muscle cells (ATCC) were grown in the same conditions as for L6 cells. 3T3-L1 cells (ATCC) were grown in 100-mm dishes in DMEM containing 10% FBS and antibiotics. For differentiation of fibroblasts into adipocytes, confluent cells were incubated in DMEM-FBS containing 0.5 mM 3-isobutyl-1-methylxanthine (IBMX; Sigma, St. Louis, Mo.) and 0.25 μM dexamethasone (Dex; Sigma) for 60 h. IBMX and Dex were then removed, and cells remained in DMEM-FBS with 250 μg/ml geneticin and compared with nontransfected HEK-293 cells. All types of cells were maintained at 37° C. in an atmosphere containing 5% CO2 and 100% humidity. Cell culture reagents, FBS, CS, and trypsin-EDTA were obtained from GIBCO/BRL (Grand Island, N.Y.).
Viruses incorporating this vector were produced by standard methods (Lu et al., 1994). Spodoptera frugiperda cells (Sf-9) were propagated in Grace's supplemented medium containing 10% CS and 0.1% Pluronic F68 and used to produce […] viral stocks. Fifteen-liter scale production runs of murine or human agouti were produced using T. ni cells adapted to suspension (JRH Biosciences, Woodland, Calif.). T ni cells were infected 24 h postseeding at a density of 10^6 cells/ml, and conditioned media from infected cells were harvested 48 h after infection filtered through a Whatman 3 filter and purified as recently described (Willard et al., 1995).
[Ca^2+]i was measured in L6, A7r5, and HEK-293 cells (Zemel et al., 1995) as previously described and in 3T3-L1 cells as described by Klip and Ramlal (1987). Monolayers of nonfused L6 cells and confluent A7r5 cells after 14-16 h of starvation in a serum-free culture medium were rinsed with Hanks' balanced salt solution (HBSS), detached by incubation in 2 ml trypsin (0.05%) for 2-3 min at 37° C., and released by pipetting without trypsinization. Cells were harvested by centrifugation at 50 g and resuspended in 1 ml HBSS at a density of ˜10^6 cells/ml. […] [Ca^2+]i levels were then measured fluorometrically in suspensions using dual excitation (340 and 380 nm)-single emission (510 nm) fluorometry as previously described (Zemel et al., 1995). [Ca^2+]i was then calculated by the computer in the fluorometer with the equation of Grynkiewicz et al. (1985). […]

T4 sequence (P41149 whole entry): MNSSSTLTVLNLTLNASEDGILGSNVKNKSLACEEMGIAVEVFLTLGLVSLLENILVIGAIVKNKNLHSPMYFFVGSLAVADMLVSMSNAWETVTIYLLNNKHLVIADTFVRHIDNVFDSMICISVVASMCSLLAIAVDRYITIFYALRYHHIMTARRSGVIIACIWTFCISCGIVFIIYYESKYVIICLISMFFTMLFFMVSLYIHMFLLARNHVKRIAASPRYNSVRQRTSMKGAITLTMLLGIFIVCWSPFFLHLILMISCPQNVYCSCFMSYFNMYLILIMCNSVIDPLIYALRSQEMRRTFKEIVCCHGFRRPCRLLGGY
T5 sequence (Q01727 whole entry): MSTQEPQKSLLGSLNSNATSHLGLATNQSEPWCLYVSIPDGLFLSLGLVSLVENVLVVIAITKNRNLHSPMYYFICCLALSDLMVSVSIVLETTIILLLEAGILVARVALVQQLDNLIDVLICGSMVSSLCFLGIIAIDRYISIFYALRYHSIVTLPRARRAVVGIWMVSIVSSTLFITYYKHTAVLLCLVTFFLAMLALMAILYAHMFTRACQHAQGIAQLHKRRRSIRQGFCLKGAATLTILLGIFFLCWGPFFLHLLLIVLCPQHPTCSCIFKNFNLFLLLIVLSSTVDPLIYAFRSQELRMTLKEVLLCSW
T2 sequence (P32244 whole entry): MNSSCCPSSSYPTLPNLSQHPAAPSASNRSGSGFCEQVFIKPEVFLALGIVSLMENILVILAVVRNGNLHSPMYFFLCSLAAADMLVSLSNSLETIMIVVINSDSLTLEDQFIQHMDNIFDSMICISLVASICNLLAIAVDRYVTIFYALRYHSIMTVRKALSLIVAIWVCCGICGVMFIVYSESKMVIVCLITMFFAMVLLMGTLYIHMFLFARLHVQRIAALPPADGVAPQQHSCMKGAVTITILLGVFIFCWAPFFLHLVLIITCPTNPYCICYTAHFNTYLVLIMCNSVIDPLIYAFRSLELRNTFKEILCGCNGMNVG
T1 sequence (P32245 whole entry): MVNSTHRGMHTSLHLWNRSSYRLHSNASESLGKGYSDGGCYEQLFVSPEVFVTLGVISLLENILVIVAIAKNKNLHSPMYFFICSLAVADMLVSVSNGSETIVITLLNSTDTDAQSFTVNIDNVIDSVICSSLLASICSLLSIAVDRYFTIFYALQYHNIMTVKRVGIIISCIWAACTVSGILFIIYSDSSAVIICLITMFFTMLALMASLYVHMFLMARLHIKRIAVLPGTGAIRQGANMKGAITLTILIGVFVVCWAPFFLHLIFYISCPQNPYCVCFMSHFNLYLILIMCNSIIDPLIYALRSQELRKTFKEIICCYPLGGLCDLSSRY

B1: agouti: recombinant mouse agouti protein (131 amino acids, SEQ ID NO:2) produced with the baculovirus expression system in T. ni cells (protein, listed as Mus musculus)
chain: MDVTRLLLATLVSFLCFFTVHSHLALEETLGDDRSLRSNSSMNSLDFSSVSIVALNKKSKKISRKEAEKRKRSSKKKASMKKVARPPPPSPCVATRDSCKPPAPACCDPCASCQCRFFGSACTCRVLNPNC
In the case of B1, the “antagonism of α-MSH activation” value with human MC4-R is on record as “potent antagonist”. For the same molecule, the “antagonism of receptor activation” value in the data set with rat MC3-R is given as “did not antagonize”; with mouse MC5-R (100 nM agouti), “unaffected”; with mouse MC5-R (agouti 0.7 nM), “did not antagonize”. For the same molecule, in the data set with human TSH-receptor, the “effect on ability of TSH to bind its receptor and stimulate adenylyl cyclase” value is “no effect”. Besides, the “increase in FAS mRNA levels” value with 3T3-L1 adipocytes [1] (48 h treatment) is listed as 1.5 fold. Besides, in the data set on 3T3-L1 adipocytes [1] (48 h treatment), the “increase in SCD mRNA levels” value amounted to 4 fold. Moreover, in the data set on 3T3-L1 adipocytes [1] (agouti, 48 h), the cellular triglyceride content is recorded as 0.104±0.008 mg triglycerides/mg protein. The “maximally induced activity of the receptor” value with murine MSH-R is listed as “did not alter”. In addition, the “[Ca2+]i Increase over Baseline” value was 49 ± 8 nM in the data set with L6 skeletal myocytes (5 nM Agouti), 32 ± 1 nM in the data set with L6 skeletal myocytes (25 nM Agouti), 73 ± 6 nM in the data set on 3T3-L1 adipocytes [2] (5 nM Agouti) and 33 ± 6 nM in the data set with 3T3-L1 adipocytes [2] (25 nM Agouti). Moreover, in the data set with L6 skeletal myocytes (50 nM agouti, no channel blocker), the “[Ca2+]i response” value was found to be 49 ± 8 nM. Also, the “Vmax of [Ca2+]i dose-response fit” value with L6 skeletal myocytes (nonlinear least-squares, y=(Vmax·x)/(K+x)) worked out at 123±15.63. Also, the EC50 in the data set with L6 skeletal myocytes (nonlinear least-squares, y=(Vmax·x)/(K+x), read-out: K of [Ca2+]i dose-response fit) stood at 62.1 ± 19.4 nM; with L6 skeletal myocytes (response plateau at 400 s, read-out: apparent EC50 of [Ca2+]i response) it was 62 ± 19 nM. For the same molecule, the “[Ca2+]i increase over baseline (plateau)” value in the data set on 3T3-L1 adipocytes [2] (50 nM agouti, 400 s after agouti addition) amounted to 73 ± 6 nM. For the same molecule, the “[Ca2+]i increase” value with 3T3-L1 adipocytes [2] (50 nM agouti, after 200 s) turned out to be 44 ± 4 nM.
